{"source": "patent US20250248992A1", "about": "“INNATE IMMUNE-ACTIVATING DRUG AND USE THEREOF” (LUODA BIOPHARMA (SUZHOU) CO., LTD., priority 2021, published 2025)", "system": "OVA-specific antibodies in serum", "assay": "Immune adjuvant activity with ovalbumin (OVA), serum antibody ELISA", "format": "in vivo, mice", "settings": "OVA alone, intramuscular, Day 0, 7, 14, serum Day 21", "data": [{"molecule": "ovalbumin (protein, UniProt P01012 2-386, looked up, Antigen ovalbumin (OVA) used for immunization of mice) Ovalbumin: GSIGAASMEFCFDVFKELKVHHANENIFYCPIAIMSALAMVYLGAKDSTRTQINKVVRFDKLPGFGDSIEAQCGTSVNVHSSLRDILNQITKPNDVYSFSLASRLYAEERYPILPEYLQCVKELYRGGLEPINFQTAADQARELINSWVESQTNGIIRNVLQPSSVDSQTAMVLVNAIVFKGLWEKAFKDEDTQAMPFRVTEQESKPVQMMYQIGLFRVASMASEKMKILELPFASGTMSMLVLLPDEVSGLEQLESIINFEKLTEWTSSNVMEERKIKVYLPRMKMEEKYNLTSVLMAMGITDVFSSSANLSGISSAESLKISQAVHAAHAEINEAGREVVGSAEAGVDAASVSEEFRADHPFLFCIKHIATNAVLFFGRCVSP", "values": [{"measurement": "protective humoral immune response after immunization", "result": "did not generate a protective humoral immune response"}]}]}
